Reference: patent publication US20170340748A1
Read-outs that look alike come from different tables or passages of the source.

What was measured:
T47D cells (human) [1] = target: T47D cells (human) (UniProt P15328); assay: flow cytometry binding on T47D cells
T47D cells (human) [2] = target: T47D cells (human) (UniProt P15328); assay: flow cytometry binding on T47D cells; remark: listed apart in the source

Sequence of T47D cells (human) (P15328 25-234, stated change not applied): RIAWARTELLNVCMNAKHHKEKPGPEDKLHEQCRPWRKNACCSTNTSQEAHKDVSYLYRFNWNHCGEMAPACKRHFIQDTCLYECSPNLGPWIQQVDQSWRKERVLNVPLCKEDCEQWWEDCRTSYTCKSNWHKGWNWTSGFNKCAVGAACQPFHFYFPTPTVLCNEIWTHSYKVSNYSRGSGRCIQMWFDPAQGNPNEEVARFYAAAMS

**Q.** What does the source list for huMOV19?
**A.** EC50 (T47D cells (human) [1]): 0.314 nM; EC50 (T47D cells (human) [2]): 0.144 nM
